The target of one assay is Streptavidin (UniProt P22629 37-163, limits assumed). The assay can be described thus: Fab ELISA.
Assay [1] concerns the target T1, full-length ECD of human IGSF11 fused to murine Fc (human, UniProt Q5DX21 23-241).
T1 construct: also called Fc-fusion IGSF11 ECD; not shown: murine Fc
T1 sequence: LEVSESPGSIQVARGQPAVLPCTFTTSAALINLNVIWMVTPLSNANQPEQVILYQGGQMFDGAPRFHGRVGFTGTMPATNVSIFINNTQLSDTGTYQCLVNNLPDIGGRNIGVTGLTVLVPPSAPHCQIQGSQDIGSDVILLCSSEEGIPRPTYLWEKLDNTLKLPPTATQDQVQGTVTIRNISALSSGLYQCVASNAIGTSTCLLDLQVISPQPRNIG
Briefly: IgG ELISA.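 Also: ELISA binding of IgG antibodies to plate-coated IGSF11 Fc-fusion proteins (full-length ECD, IgV or IgC2 domain), detected via HRP-labelled anti-human IgG with TMB development.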

For assay [2], the target named is T2, IgC2 domain of human IGSF11 fused to murine IgG2a Fc (human, UniProt Q5DX21 137-241).
T2 construct: not shown: murine IgG2a Fc-region
T2 sequence: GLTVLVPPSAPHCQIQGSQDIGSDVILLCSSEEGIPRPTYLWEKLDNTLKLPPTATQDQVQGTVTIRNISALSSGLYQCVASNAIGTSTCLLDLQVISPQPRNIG
The assay can be described thus: IgG ELISA. (An ELISA detects its analyte on a solid surface through an enzyme-linked reagent.)

The target in assay [3] is T3, ECD of murine IGSF11, recombinant biotinylated (mouse, UniProt P0C673 23-240).
T3 construct: whole entry named; also called Mouse IGSF11
T3 sequence: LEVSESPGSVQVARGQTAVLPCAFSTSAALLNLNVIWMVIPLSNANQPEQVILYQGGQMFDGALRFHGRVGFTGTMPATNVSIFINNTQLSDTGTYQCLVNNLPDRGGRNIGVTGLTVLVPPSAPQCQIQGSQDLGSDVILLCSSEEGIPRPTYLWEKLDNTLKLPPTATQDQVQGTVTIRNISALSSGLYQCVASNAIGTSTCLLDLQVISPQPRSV
Briefly: ELISA RFU 0.1-0.5.

Assay [4] deals with T4, extracellular domain (ECD) of human IGSF11 (VSIG3), recombinant (human, UniProt Q5DX21 23-241).
T4 construct: biotinylated where captured on streptavidin; tags of the reagent not always stated; also called IGSF11 (ECD domain); ECD-IGSF11
T4 sequence: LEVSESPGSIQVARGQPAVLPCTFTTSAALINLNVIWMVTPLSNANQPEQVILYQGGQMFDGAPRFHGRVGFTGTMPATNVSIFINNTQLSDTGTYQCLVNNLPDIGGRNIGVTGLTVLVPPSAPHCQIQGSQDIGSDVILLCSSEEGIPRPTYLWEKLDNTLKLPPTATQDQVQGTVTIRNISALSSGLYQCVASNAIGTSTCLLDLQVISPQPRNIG
Briefly: ELISA RFU 0.5-1.0.

As a reminder, the EC50 is the concentration at which the effect is half-maximal. Read a low EC50 as an effect from little substance.

Chain of Streptavidin (P22629 37-163 limits assumed): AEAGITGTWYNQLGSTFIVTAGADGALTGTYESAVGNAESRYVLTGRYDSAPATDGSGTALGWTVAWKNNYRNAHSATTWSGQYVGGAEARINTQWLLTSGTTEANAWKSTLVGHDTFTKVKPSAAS

B1: C-007 (Fab format) (Fab, V domains shown)
VH: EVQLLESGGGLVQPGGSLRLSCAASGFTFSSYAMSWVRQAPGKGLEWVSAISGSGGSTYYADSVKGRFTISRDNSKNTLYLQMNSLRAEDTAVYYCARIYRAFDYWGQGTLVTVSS
VL: ASVLTQPPSVSAAPGQKVTISCSGSSSNIGNNYVSWYQQLPGTAPKLLIYDNNKRPSGIPDRFSGSKSGTSATLGITGLQAEDEADYYCQLYEEEHSTWVFGGGTKLTVL
notes: Fab from E. coli lysate
For the molecule B1, the A450 with Streptavidin is under 0.1.

B2: C-026 (Fab format) (Fab, V domains shown)
VH: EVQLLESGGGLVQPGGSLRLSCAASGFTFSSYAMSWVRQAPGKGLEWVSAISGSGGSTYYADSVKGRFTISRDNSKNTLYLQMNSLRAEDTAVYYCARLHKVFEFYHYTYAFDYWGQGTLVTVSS
VL: ASVLTQPPSVSAAPGQKVTISCSGSSSNIGNNYVSWYQQLPGTAPKLLIYDNNKRPSGIPDRFSGSKSGTSATLGITGLQAEDEADYYCASYSSETSGWVFGGGTKLTVL
notes: Fab from E. coli lysate
For B2, the A450 in the assay with Streptavidin is under 0.1.

B3: C-002 (IgG1 format) (antibody, V domains shown)
VH: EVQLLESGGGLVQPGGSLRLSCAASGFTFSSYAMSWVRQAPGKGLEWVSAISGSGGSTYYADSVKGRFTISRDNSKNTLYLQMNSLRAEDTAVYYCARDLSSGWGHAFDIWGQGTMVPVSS
VL: ASVLTQPPSVSAAPGQKVTISCSGSSSNIGNNYVSWYQQLPGTAPKLLIYDNNKRPSGIPDRFSGSKSGTSATLGITGLQAEDEADYYCLSYTTSEHHLVFGGGTKLTVL
For the molecule B3, the concentration for a half-maximal effect (EC50) was 1 to 20 nM in assay [1] and under 1 nM in assay [2].

B4: C-001 (Fab format) (Fab, V domains shown)
VH: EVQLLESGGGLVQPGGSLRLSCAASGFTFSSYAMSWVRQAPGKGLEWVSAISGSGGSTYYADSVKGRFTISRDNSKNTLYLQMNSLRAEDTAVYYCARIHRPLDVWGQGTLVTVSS
VL: ASVLTQPPSVSAAPGQKVTISCSGSSSNIGNNYVSWYQQLPGTAPKLLIYDNNKRPSGIPDRFSGSKSGTSATLGITGLQAEDEADYYCGSWLEERSQYVFGGGTKLTVL
notes: Fab from E. coli lysate
B4 displayed an A450 with Streptavidin of under 0.1.

B5: A-005 (scFv format) (scFv, V domains shown)
VH: EVQLVESGGGLIQPGGSLRLSCAASGFTVSSNYMSWVRQAPGKGLEWVSVIYSGGSTYYADSVKGRFTISRDNSKNTLYLQMNSLRAEDTAVYYCARGNPYYYGDLQVNFDYWGQGTLVTVSS
VL: QAVVTQEPSLTVSPGETVTLTCASSTGAVTSGYYPNWFQQRPGQAPRALIYSTSNKDSWTPARFSGSLLGGKAALTLSGVQPEDEAEYYCLLYYGGAWVFGGGTKLTVL
notes: scFv
As for B5, the “ELISA binding signal (RFU)” value in assay [3] lay in the range of 0.1 to 0.5 rfu; in assay [4] it was 0.5 to 1 rfu.

B6: A-002 (scFv format) (scFv, V domains shown)
VH: EVQLVESGGGLIQPGGSLRLSCAASGFTVSSNYMSWVRQAPGKGLEWVSVIYSGGSTYYADSVKGRFTISRDNSKNTLYLQMNSLRAEDTAVYYCARGNPYYYGDLQVNFDYWGQGTLVTVSS
VL: QAVVTQEPSLTVSPGGTVTPTCGSSTGAVTSGNLPNWFQQKPGQAPRALIYSTSNKHSWTPARISGSLLGGKAALTLSGVQPEDEAEYYCLLYYGGAWVFGGGTKLTVL
notes: scFv
Consider B6, for which the “ELISA binding signal (RFU)” value in assay [3] is 0.1 to 0.5 rfu; in assay [4], 0.5 to 1 rfu.

B7: A-014 (scFv format) (scFv, V domains shown)
VH: QVQLVQSGAEVKKPGASVKVSCKASGYTFNDYYIHWVRQAPGQGLEWMGWFNPSTGGANYAQKFQGRVTMTRDTSISTAYLEVSSLRSDDTAVYYCARGNSPDLDYWGQGTLVTVSS
VL: DIQMTQSPDSLTVSLGERATINCKSSQSLLHSSNNKNYLAWYQQRPGQPPKLLIYWASTRQSGVPDRFSGSGSGTDFTLTINSLQADDMAVYYCQQYYTTTPNTFGQGTKLEIK
notes: scFv
As to B7, the results for the “ELISA binding signal (RFU)” value in assay [3] and in assay [4] were 0.1 to 0.5 rfu and 0.5 to 1 rfu, respectively.

B8: A-009 (scFv format) (scFv, V domains shown)
VH: QVQLVQSGAEVKKPGSSVKVSCKASGGTFSSYAISWVRQAPGQGLEWMGGIIPIFGTANYAQKFQGRVTITADESTSTAYMELSSLRSEDTAVYYCARGRGFGELYFDYWGQGTLVTVSS
VL: ETTLTQSPATLSVSPGERATLSCRASQGVRSNIAWYQQKPGQAPRLLIYDSSTRATGIPARFSGSGSGTEFTLTISSLQSEDFAVYSCQQYKNWPRTFGQGTKVEIK
notes: scFv
Turning to B8, the “ELISA binding signal (RFU)” value was 0.1 to 0.5 rfu in assay [3] and 0.5 to 1 rfu in assay [4].

B9: C-022 (Fab format) (Fab, V domains shown)
VH: EVQLLESGGGLVQPGGSLRLSCAASGFTFSSYAMSWVRQAPGKGLEWVSAISGSGGSTYYADSVKGRFTISRDNSKNTLYLQMNSLRAEDTAAYYCARMAAGASWGTFDYWSQGTLVTVSS
VL: DIQMTQSPSSLSASVGDRVTITCRASQSISSYLNWYQQKPGKAPKLLIYAASSLQSGVPSRFSGSGSGTDFTLTISSLQPEDFATYYCQQRSGSPLTFGQGTKVEIK
notes: Fab from E. coli lysate
Consider B9, for which the A450 with Streptavidin is under 0.1.

B10: C-021 (IgG1 format) (antibody, V domains shown)
VH: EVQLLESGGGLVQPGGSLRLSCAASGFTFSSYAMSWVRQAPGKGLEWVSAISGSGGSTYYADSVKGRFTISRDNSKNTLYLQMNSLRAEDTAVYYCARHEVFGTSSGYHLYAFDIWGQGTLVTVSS
VL: DIQMTQSPSSLSASVGDRVTITCRASQSISSYLNWYQQKPGKAPKLLIYAASSLQSGVPSRFSGSGSGTDFTLTISSLQPEDFATYYCQQWSGLPLTFGQGTKVEIK
B10 returned a 50% effective concentration (EC50) in assay [2] of under 1 nM.

B11: C-008 (Fab format) (Fab, V domains shown)
VH: EVQLLESGGGLVQPGGSLRLSCAASGFTFSSYAMSWVRQAPGKGLEWVSAISGSGGSTYYADSVKGRFTISRDNSKNTLYLQMNSLRAEDTAVYYCTTDNGHNRDWGQGTLVTVSS
VL: ASVLTQPPSVSAAPGQKVTISCSGSSSNIGNNYVSWYQQLPGTAPKLLIYDNNKRPSGIPDRFSGSKSGTSATLGITGLQAEDEADYYCGTWTRSSGVFGGGTKLTVL
notes: Fab from E. coli lysate
Consider B11, for which, in the assay with Streptavidin, the A450 was under 0.1.

B12: A-021 (scFv format) (scFv, V domains shown)
VH: QVQLVQSGAEVKKPGASVKVSCKASGYTFTSYGISWVRQAPGQGLEWMGWISAYNGNTNYAQKLQGRVTMTTDTSTSTAYMELRSLRSDDTAVYYCARVPAWSGQFDYWGQGTLVTVSS
VL: QSALTQPASVSGSPGQSITISCTGTSSDVGGYNYVSWYQQHPGKAPKLMIYEVTNRPSGVSDRFSGSKSANTASLTISELQAEDEAVYYCNSYTSGPTYVLFGGGTQLTVL
notes: scFv
For B12, the “ELISA binding signal (RFU)” value in assay [3] was in the range of 0.1 to 0.5 rfu; in assay [4], 0.5 to 1 rfu.

B13: C-006 (IgG1 format) (antibody, V domains shown)
VH: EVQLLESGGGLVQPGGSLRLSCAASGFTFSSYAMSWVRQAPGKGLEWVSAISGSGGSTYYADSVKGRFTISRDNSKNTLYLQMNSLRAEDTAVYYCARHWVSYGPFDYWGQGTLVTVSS
VL: DIQMTQSPSSLSASVGDRVTITCRASQSISSYLNWYQQKPGKAPKLLIYAASSLQSGVPSRFSGSGSGTDFTLTISSLQPEDFATYYCQQSHQSPPITFGQGTKVEIK
As to B13, the EC50 in assay [1] was 1 to 20 nM; in assay [2] it was under 1 nM.

B14: A-023 (scFv format) (scFv, V domains shown)
VH: QVQLVQSGAEVKKPGSSVKVSCKASGGTFSSYAISWVRQAPGQGLEWMGGIIPIFGTANYAQKFQGRVTITADESTSTAYMELSSLRSEDTAVYYCARPKYSSGWFYYYGMDVWGQGTTVTVSS
VL: QSVLTQPPSVSAAPGQKVTISCSGSSSNIGNNYVSWYQQLPGTAPKLLIYDNNKRPSGIPDRFSGSKSGTSATLGITGLQTGDEADYYCGTWDSSLSVVFGGGTKLTVL
notes: scFv
Regarding B14, the “ELISA binding signal (RFU)” value in assay [3] lay in the range of 0.1 to 0.5 rfu; in assay [4], 0.5 to 1 rfu.

B15: C-005 (Fab format) (Fab, V domains shown)
VH: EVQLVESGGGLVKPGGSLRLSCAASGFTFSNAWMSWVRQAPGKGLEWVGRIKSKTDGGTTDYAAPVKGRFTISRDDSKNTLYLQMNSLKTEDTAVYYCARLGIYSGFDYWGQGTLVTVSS
VL: SYELTQPPSVSVSPGQTASITCSGDKLGDKYASWYQQKPGQSPVLVIYQDSKRPSGIPERFSGSNSGNTATLTISGTQAEDEADYYCHSYTGKPSQVVFGGGTKLTVL
notes: Fab from E. coli lysate
In the assay with Streptavidin, B15 returned an A450 of under 0.1.

B16: C-009 (Fab format) (Fab, V domains shown)
VH: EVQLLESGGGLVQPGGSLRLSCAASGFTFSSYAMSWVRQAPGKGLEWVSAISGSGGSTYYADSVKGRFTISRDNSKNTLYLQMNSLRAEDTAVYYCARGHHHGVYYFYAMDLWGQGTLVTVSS
VL: SYELTQPPSVSVSPGQTASITCSGDKLGDKYASWYQQKPGQSPVLVIYQDSKRPSGIPERFSGSNSGNTATLTISGTQAEDEADYYCQSYSGSSTLHVFGGGTKLTVL
notes: Fab from E. coli lysate
Take B16: the A450 with Streptavidin is under 0.1.

B17: C-014 (IgG1 format) (antibody, V domains shown)
VH: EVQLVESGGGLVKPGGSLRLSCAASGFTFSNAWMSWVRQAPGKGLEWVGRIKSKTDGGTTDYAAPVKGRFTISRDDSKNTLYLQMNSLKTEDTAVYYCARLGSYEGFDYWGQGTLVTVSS
VL: SYELTQPPSVSVSPGQTASITCSGDKLGDKYASWYQQKPGQSPVLVIYQDSKRPSGIPERFSGSNSGNTATLTISGTQAEDEADYYCSTYTVTSSVVVFGGGTKLTVL
Consider B17, for which the EC50 in assay [1] was 1 to 20 nM; in assay [2] it was under 1 nM.

B18: C-023 (IgG1 format) (antibody, V domains shown)
VH: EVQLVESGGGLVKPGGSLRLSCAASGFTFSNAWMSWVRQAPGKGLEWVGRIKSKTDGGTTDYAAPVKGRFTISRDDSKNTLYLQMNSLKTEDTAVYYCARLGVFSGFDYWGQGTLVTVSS
VL: SYELTQPPSVSVSPGQTASITCSGDKLGDKYASWYQQKPGQSPVLVIYQDSKRPSGIPERFSGSNSGNTATLTISGTQAEDEADYYCHTWTHHSLAVVFGGGTKLTVL
For B18, the EC50 in assay [1] and in assay [2] was under 1 nM each time.

B19: C-013 (IgG1 format) (antibody, V domains shown)
VH: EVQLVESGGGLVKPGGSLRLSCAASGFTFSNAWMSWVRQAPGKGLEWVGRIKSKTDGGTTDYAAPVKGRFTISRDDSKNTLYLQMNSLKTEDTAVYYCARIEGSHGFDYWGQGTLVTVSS
VL: SYELTQPPSVSVSPGQTASITCSGDKLGDKYASWYQQKPGQSPVLVIYQDSKRPSGIPERFSGSNSGNTATLTISGTQAEDEADYYCASYLHTPKQFVFGGGTKLTVL
B19: the results for the EC50 in assay [1] and in assay [2] were 1 to 20 nM and under 1 nM, respectively.

B20: A-024 (scFv format) (scFv, V domains shown)
VH: QMQLVQSGAEVKKPGSSVKVSCKASGGTFSSYAISWVRQAPGQGLEWMGWISAYNGNTNYAQKLQGRVTMTTDTSTSTAYMELRSLRSDDTAVYYCASLGSYGYTGAFDIWGQGTMATVSS
VL: QSALTQPASVSGSPGQSITISCTGTSSDVGGYNYVSWYQQHPGKAPKLMIYEVSNRPSGVSNRFSGSKSGNTASLTISGLQAEDEADYYCSSYTSSSTLVVFGGGTKLTVL
Take B20: the entries for the “ELISA binding signal (RFU)” value in assay [3] and in assay [4] were 0.1 to 0.5 rfu and 0.5 to 1 rfu, respectively.

B21: A-017 (scFv format) (scFv, V domains shown)
VH: QVQLVQSGAEVKKPGASVKVSCKASGYTFTGYYMHWVRQAPGQGLEWMGWINPNSGNTGYAQKFQGRVTMTRNTSISTAYMELSSLRSEDTAVYYCARGGQQQLVLDDYWGQGTLVTVSS
VL: DIVLTQSPASLSASVGDRITITCQASQDIRHHLNWFQHKPGKAPKLLISDSSNLETGVPSRFSGSGSGTDFSFTISRLQPEDIATYYCQQYDSLPRTFGQGTKLEIK
notes: scFv
B21: the entries for the “ELISA binding signal (RFU)” value in assay [3] and in assay [4] were 0.1 to 0.5 rfu and 0.5 to 1 rfu, respectively.
